± gives the half width of the 95% confidence interval.
Test: folding stability dG unfold from chymotrypsin proteolysis; higher = more stable
Summary of the method: (§1)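 Designed mini-proteins with no cysteine and under 80 residues were kept only if AlphaFold2 dimer inter-PAE was above 15. In a PA-tagged cDNA display construct, they were digested with trypsin and chymotrypsin and then sequenced. K50 was inferred by Bayesian fitting of counts, and unfolding free energy was derived per protease or combined against a sequence-predicted unfolded-state K50 and a shared folded-state K50.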

Sequence	folding stability dG unfold [kcal/mol]
SAMKEGETVRIELVVVVPPGASVEELADALRALFGPDAEIRVEVEEVTVEVDGKTYRVLTVRVEIRLRKSAG [r14_633_TrROS_Hall]	4.5 ± 0.059
SAGKMKIIEVKPGEEIKITIPEEGKKVKIYVYNKNGEKVEEKEVEIKPGQTLTFKIPKEDAKVIIEIEDSAG [r5_797_TrROS_Hall]	3.11 ± 0.039
SAGGSAGGSAGGNKVTIPIHIPPGDPGNPEKAIEWAEHIAKELQEKNGGKDVDINIMPSPSAGGSAGGSAGG [r7_440_TrROS]	-0.595 ± 0.079
SAGKKIKIVKVEVTYDPETKEVTVKITIYNENGEKIKEIELTYEPGMSEEEVREKAEALVRKLIEEGKLSAG [r5_238_TrROS_Hall]	2.24 ± 0.05
SAGGSAGGSAGGSMVKISKEPDRLTITITPGNTPLVFESTEPISEEEFVEKAKKENPLISAGGSAGGSAGGS [r4_191_JUSTAS]	1.03 ± 0.037
SAGGSAGGSAGWIWMKVTEVNPDDGTIKIKFDGQKIKIPAKNMKIREDGDYVEIEIPEDDSAGGSAGGSAGG [r17_403_TrROS]	0.242 ± 0.22
SAGGSAGGTIMIQFPDMDSPEEAIDQAEFFINEFMKQGNPGKPIKVTIQDPKNGQQQTFEIPLESAGGSAGG [r6_238_TrROS]	0.244 ± 0.16
SAGGKVEVETKAYFIPETGEVVLLTTVRVETDEEPSEEERENLPEGATRTETFTFVFVFPAKPGSLLSAGGS [r8_274_TrMRF]	3.52 ± 0.044
SAGGSAGGSAGPEKTVTLRVKITNADGQEQTLELTAETEEEALAALRALLPPGAKVEIEPSAGGSAGGSAGG [r11_671_TrROS_Hall]	3.66 ± 0.07
SAGGSAGGSAGKHTFNIKDIEIKEVVPSNNYYVVRIEMTFPDGKEHKFTFYFPPGDPITLSAGGSAGGSAGG [r11_211_TrROS]	2.87 ± 0.085
SLEVARELGLPVERAIPTSVDPFNGRTHLVVLVSLPSRFVRIEVDVRYEPDPDGRLIPRVEVLRIEVFPESA [r9_613_TrMRF]	3.67 ± 0.04
SAGGMKVATVTLLTRDPSSDRTFEVTVEVPDDIVEKGDIEEAIARAKQLAEERGYPILEVEVEVKEPPSAGG [r13_954_JUSTAS]	0.625 ± 0.12
SAGGLYVFDKNGKIISKVPKVEPIPIVITFPDGEKVLFEKYPGLNIIVVSYEGENPEKVKEAVKKILSSAGG [r13_701_TrMRF]	1.06 ± 0.14
SAMTVTITLPPSISPEEAKAALEAAFPGEDIQVTTTTDPNAGTLTVTVTFSSPEDAARAAALLAEVRAASAG [r14_443_JUSTAS]	4.68 ± 0.067
SAGGSADIPSDWTVTPVSSSYDPATGTTTTEETVYDSKGNPQYKITVTTTFDPTTGTTTTTVTYNPSAGGSA [r15_1028_JUSTAS]	2.054 ± 0.018
SAGGSMTLEEKSEEDYIIRYVEKGDTYSLIKINPNTGTAEVTTFKPGGVPSKTTYKIPKGKELKVTGSAGGS [r8_11_JUSTAS]	0.726 ± 0.12
SAGGMSEALLADPTVEKVELFPSPGVTVYYRPETGTWLIQPPDGSVEEIKMTPEELEKLIADGLKPASAGGS [r16_745_JUSTAS]	0.588 ± 0.23
SAGGKIEIHPDTLVVRIEVENKDGSTEEITLELKGLTEEELEDLLKELAAQLPDPDVKVKIVEIRRLPSAGG [r13_29_TrROS_Hall]	2.49 ± 0.12
SAGGEPVLVPVKGTFENPELGVKVEVEAYFFPEFDFALVNVKVTPYSPDGKPLEVEGTFVVSVSELLKSAGG [r13_807_TrMRF]	3.16 ± 0.086
SATGAIVLEKPVEFNIPDKNGKPVFKSKVLIFVDPGKDKVYALIYDPKTGKKLIVEFNSPEEVKKFFESSAG [r14_508_TrMRF]	1.54 ± 0.12
SAGGSAPAEKVAQTLLDLGFTEVRVEEDPETDLVTVEVIDPDGTRLEIRVDPKDPRIVEIRPRSLKSAGGSA [r15_648_TrMRF]	-0.0972 ± 0.15

Test: folding stability dG unfold (combined trypsin and chymotrypsin); higher = more stable
Summary of the method: as §1

Sequence	folding stability dG unfold [kcal/mol]
SAGGSAGGSMKKITLTLTFPNGTTETLDITPLLEKSGLSPEEAIQLLKEELPENVTYKVTTEGSAGGSAGGS [r12_399_JUSTAS]	3.01 ± 0.084
SAGGSAGGSKLSEEEKKKLAKKPKIKIKVKIRNKDGKEYKPGEKVKIEINGKIYEIESIEIEPSAGGSAGGS [r12_43_TrROS_Hall]	1.3 ± 0.085
SEINFKPVKVDKNGNFYVENETKPGLVEKLIEAIKELFPGVEITEIKEIPEPPKIEIKAKHPSGKEFTFGSA [r9_1164_TrMRF]	0.825 ± 0.11
SAGGSAGGSAGGPPDEVVTTVTEIELPDDKVVTVTTTTVPGAGTTTTTVTTKPLTKPGVSSAGGSAGGSAGG [r11_695_JUSTAS]	1.82 ± 0.047
SAGGSAGGSKKKVKVKKFEKTKDADGNEVVKVFFEDDGKVVTLPEELADKLKEDDEFDLEDLASAGGSAGGS [r20_3_TrMRF]	0.139 ± 0.1
SAGGIKIHVEREGNYYRIKIKWPNNNEISIPFDSPEDAEEQAEEQLQKQFPNMPPENVKIDEIEPYPPSAGG [r13_887_TrROS]	0.469 ± 0.099
SASITLTAPGGKPVTLPVPPSLSVLSVELDPATGRWTIELQDPATGERFTVTVYAPPSGPAGVEVTPNVSAG [r14_311_JUSTAS]	3.486 ± 0.032
SAGGSAGGSAGKNPDGQPAPTIEIEPRTRELPDNGYKITIMRIRFPDSGVEFPMIMISPPSAGGSAGGSAGG [r17_31_TrROS]	1.29 ± 0.1
SAETVVNVTISRPPPSKYSVTITIQPPTSSTSLPTTTDLPPGAYEELLAALQKAHPNLTFSTVTETSDGSAG [r14_969_JUSTAS]	0.828 ± 0.12
SAGGSAGGSAGPTYKIKIYFEDTGVEAEVEINEDGSLTITVPKELLPPGAKVKVEIVKVPSAGGSAGGSAGG [r17_392_TrROS_Hall]	1.57 ± 0.26
SAGGSAGGSAGVSPNEDVKVEVLEVKPDPETGTYTVLVKDPRTGEERTLTLTPEELAKLLSAGGSAGGSAGG [r11_894_JUSTAS]	4.56 ± 0.079
SMKITPLPGPEEVAEFPETGETITITRDPSTGLVTVTYNGPGTPVTATTDPAVGTVTVNTPDGKITIPLTSA [r9_541_JUSTAS]	0.346 ± 0.072
SAGGIEVEAESERVEGGVLRVTVTAADPDGVPIVLELPVPPGAPEITEEEARELAVEAALKVAAELASAGGS [r8_123_TrMRF]	0.699 ± 0.053
SAGGSAGGSNYINVKIEIWDPPNGKEREITINIPVPPGDPDYLKEIVNELASNFPGYYVKVEISAGGSAGGS [r12_795_TrROS]	1.64 ± 0.23
MTVELETTDIEELLARIEEAAAAGKNVTVTAKPEEFEKIRAEGFKIDEILEVKPVPGDDTVVTLINISPEGS [r1_173_JUSTAS]	0.897 ± 0.085
SPAKPVPIEITMHGDGMFEIRLPNGKEISFPNPDGQWAQATVDPDEGTIEIEMYNNGKRHTFEIPLPPNDSA [r9_226_TrROS]	0.459 ± 0.16
SAGGSAGGSMSVTVVGRVPGLGLVEVVIHRPDEPVVVTVPRSEVEALLAAFPYPDAVVTTRDASAGGSAGGS [r12_23_JUSTAS]	0.151 ± 0.056
SAGGSAGGSAGGSKAKKITIWIPPGNINPEVKDQLQKEGINIEIQPIPAKRDPDGKPRWSAGGSAGGSAGGS [r4_294_TrROS]	0.81 ± 0.14
SAGGSAGGSAPKIIVVKPEDIVEAVKKADPNEKVLLFDPETGEIYEITPDKMEFIEKIPPGESAGGSAGGSA [r18_246_TrMRF]	0.466 ± 0.22
SAGGSAGGSAGGPVVIRLKVDMSPEEVEALAKELASLPNVKVEWDEESRVLTVTLSEEDLSAGGSAGGSAGG [r7_219_TrROS_Hall]	2.72 ± 0.099
SAGGSAGGSAGGSVTVERYPDGKVTTTTTDPTRPVTTVTLAEVEPGPGKVLTETVTPVPSAGGSAGGSAGGS [r10_613_JUSTAS]	1.12 ± 0.1

Sequence	folding stability dG unfold [kcal/mol]
SAMKEGETVRIELVVVVPPGASVEELADALRALFGPDAEIRVEVEEVTVEVDGKTYRVLTVRVEIRLRKSAG [r14_633_TrROS_Hall]	4.18 ± 0.057
SAGKMKIIEVKPGEEIKITIPEEGKKVKIYVYNKNGEKVEEKEVEIKPGQTLTFKIPKEDAKVIIEIEDSAG [r5_797_TrROS_Hall]	2.82 ± 0.18
SAGGSAGGSAGGNKVTIPIHIPPGDPGNPEKAIEWAEHIAKELQEKNGGKDVDINIMPSPSAGGSAGGSAGG [r7_440_TrROS]	0.174 ± 0.33
SAGKKIKIVKVEVTYDPETKEVTVKITIYNENGEKIKEIELTYEPGMSEEEVREKAEALVRKLIEEGKLSAG [r5_238_TrROS_Hall]	2.54 ± 0.1
SAGGSAGGSAGGSMVKISKEPDRLTITITPGNTPLVFESTEPISEEEFVEKAKKENPLISAGGSAGGSAGGS [r4_191_JUSTAS]	0.657 ± 0.17
SAGGSAGGSAGWIWMKVTEVNPDDGTIKIKFDGQKIKIPAKNMKIREDGDYVEIEIPEDDSAGGSAGGSAGG [r17_403_TrROS]	0.228 ± 0.11
SAGGSAGGTIMIQFPDMDSPEEAIDQAEFFINEFMKQGNPGKPIKVTIQDPKNGQQQTFEIPLESAGGSAGG [r6_238_TrROS]	-0.114 ± 0.16
SAGGKVEVETKAYFIPETGEVVLLTTVRVETDEEPSEEERENLPEGATRTETFTFVFVFPAKPGSLLSAGGS [r8_274_TrMRF]	3.19 ± 0.092
SAGGSAGGSAGPEKTVTLRVKITNADGQEQTLELTAETEEEALAALRALLPPGAKVEIEPSAGGSAGGSAGG [r11_671_TrROS_Hall]	3.35 ± 0.087
SAGGSAGGSAGKHTFNIKDIEIKEVVPSNNYYVVRIEMTFPDGKEHKFTFYFPPGDPITLSAGGSAGGSAGG [r11_211_TrROS]	2.53 ± 0.14
SLEVARELGLPVERAIPTSVDPFNGRTHLVVLVSLPSRFVRIEVDVRYEPDPDGRLIPRVEVLRIEVFPESA [r9_613_TrMRF]	3.21 ± 0.05
SAGGMKVATVTLLTRDPSSDRTFEVTVEVPDDIVEKGDIEEAIARAKQLAEERGYPILEVEVEVKEPPSAGG [r13_954_JUSTAS]	0.922 ± 0.12
SAGGLYVFDKNGKIISKVPKVEPIPIVITFPDGEKVLFEKYPGLNIIVVSYEGENPEKVKEAVKKILSSAGG [r13_701_TrMRF]	0.977 ± 0.13
SAMTVTITLPPSISPEEAKAALEAAFPGEDIQVTTTTDPNAGTLTVTVTFSSPEDAARAAALLAEVRAASAG [r14_443_JUSTAS]	4.33 ± 0.077
SAGGSADIPSDWTVTPVSSSYDPATGTTTTEETVYDSKGNPQYKITVTTTFDPTTGTTTTTVTYNPSAGGSA [r15_1028_JUSTAS]	2.17 ± 0.058
SAGGSMTLEEKSEEDYIIRYVEKGDTYSLIKINPNTGTAEVTTFKPGGVPSKTTYKIPKGKELKVTGSAGGS [r8_11_JUSTAS]	0.481 ± 0.079
SAGGMSEALLADPTVEKVELFPSPGVTVYYRPETGTWLIQPPDGSVEEIKMTPEELEKLIADGLKPASAGGS [r16_745_JUSTAS]	0.923 ± 0.1
SAGGKIEIHPDTLVVRIEVENKDGSTEEITLELKGLTEEELEDLLKELAAQLPDPDVKVKIVEIRRLPSAGG [r13_29_TrROS_Hall]	2.43 ± 0.13
SAGGEPVLVPVKGTFENPELGVKVEVEAYFFPEFDFALVNVKVTPYSPDGKPLEVEGTFVVSVSELLKSAGG [r13_807_TrMRF]	2.75 ± 0.12
SATGAIVLEKPVEFNIPDKNGKPVFKSKVLIFVDPGKDKVYALIYDPKTGKKLIVEFNSPEEVKKFFESSAG [r14_508_TrMRF]	1.65 ± 0.077
SAGGSAPAEKVAQTLLDLGFTEVRVEEDPETDLVTVEVIDPDGTRLEIRVDPKDPRIVEIRPRSLKSAGGSA [r15_648_TrMRF]	-0.154 ± 0.16

Reference: the supplement of paper PMC12764529
